This is an account of results in patent US20170183660, “APTAMER TARGETING MAGE-A3 PEPTIDE AND USES THEREOF” (Academia Sinica, published 2017).

For data set [1], the target named is T1, MAGE-A3 peptide 111-125 (unmodified) (UniProt P43357).
T1 chain: RKVAELVHFLLLKYR
Description: ITC; 25 C, DPBS with 0.45% glucose, 5 mM MgCl2; dH -41 kcal/mol. The note with it: protein: synthetic; tags: none; peptide (synthetic, inferred). On the procedure:
(§1) Thermodynamic profile of the interaction between DNA and peptide was measured with a MicroCal iTC₂₀₀ (GE Healthcare Life Sciences) at 25° C. in washing buffer (0.45% glucose, 5 mM MgCl₂, in Dulbecco's Phosphate-Buffered Saline). The unmodified MAGE-A3₁₁₁₋₁₂₅ peptide (0.3 mM, 200 μl) was titrated with 18 successive injections of 2 μl aptamer (0.1 mM) at 150 s intervals. The data were analyzed using MicroCal Origin 7 and fit with a one-set-of sites binding model to obtain values of enthalpy change (AH) and association constant (Kₐ).
For orientation: In ITC the heat of successive injections is recorded.

Data set [2] concerns the target T1, MAGE-A3 peptide 111-125 (unmodified). Put plainly: ITC; 25 C, DPBS with 0.45% glucose, 5 mM MgCl2; dH -24 kcal/mol. The conditions noted are these: protein: synthetic; tags: none; peptide (synthetic, inferred). On the procedure: as §1
A further data set has as its target NY-ESO-1 peptide 119-143 (UniProt P78358 P78358:119-143). Put plainly: pulldown; specificity control peptide. The conditions noted are these: protein: synthetic; tags: peptide (synthetic, inferred), streptavidin beads.
In the next data set the target is T2, NY-ESO-1 peptide 157-170 (UniProt P78358 P78358:157-170).
T2 chain: SLLMWITQCFLPVF
Description: pulldown; specificity control peptide. The note with it: protein: synthetic; tags: peptide (synthetic, inferred), streptavidin beads.

The target in a further data set is T3, NY-ESO-1 peptide 87-111 (UniProt P78358 P78358:87-111).
T3 chain: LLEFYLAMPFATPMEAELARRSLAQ
Put plainly: pulldown; specificity control peptide. The conditions noted are these: protein: synthetic; tags: peptide (synthetic, inferred), streptavidin beads.

For AGCACTCAATATTCCC (ssDNA) [Ap16], the Kd in data set [1] worked out at 95 nM.

B1: Ap52 (ssDNA)
DNA: ATCCAGAGTGACGCAGCAAGCACTCAATATTCCCTGGACACGGTGGCTTAGT
The molecule B1 showed a Kd in data set [2] of 57 nM. For the same molecule, the binding result in the data set with NY-ESO-1 peptide 119-143, with NY-ESO-1 peptide 157-170 and with NY-ESO-1 peptide 87-111 was “no binding” throughout.

Broadly, the Kd is the concentration at which binding is half-saturated. Low readings indicate higher affinity, high ones lower affinity.
